Assay results from paper PMC10294631.

Tested on: CsrA-His6
Assay: EMSA

With hmsE RNA 104 nt (GGA2 and GGA3) the Kd was 138 nM.
